{
  "source": "paper PMC6539110",
  "about": "“A Novel G-Quadruplex Binding Protein in Yeast—Slx9”",
  "binders": {"B1": {"name": "dsDNA (dsDNA)", "DNA 1": "GACGCTGCCGAATTCTGGCTTGCTAGGACATCTTTGCCCACGTTGACCCG", "DNA 2": "CGGGTCAACGTGGGCAAAGATGTCCTAGCAAGCCAGAATTCGGCAGCGTC"}, "B2": {"name": "4-fork (4-way junction) (dsDNA)", "DNA 1": "B1 DNA 1", "DNA 2": "CGGGTCAACGTGGGCAAAGATGTCCTAGCAATGTAATCGTCTATGACGTC", "DNA 3": "GACGTCATAGACGATTACATTGCTAGGACATGCTGTCTAGAGACTATCGC", "DNA 4": "GCGATAGTCTCTAGACAGCATGTCCTAGCAAGCCAGAATTCGGCAGCGTC"}, "B3": {"name": "fork (dsDNA)", "DNA 1": "B1 DNA 1", "DNA 2": "B2 DNA 2"}, "B4": {"name": "bubble (dsDNA)", "DNA 1": "CGGGTCAACGTGGGCAAAGCCAATGCGATCGGCCAGAATTCGGCAGCGTC", "DNA 2": "B1 DNA 1 with A25C"}},
  "key": {"Slx9 (6xHis-Slx9) [1]": {"molecular_target": "T1, Slx9 (6xHis-Slx9) (Saccharomyces cerevisiae, UniProt P53251 1-210)", "T1 sequence": "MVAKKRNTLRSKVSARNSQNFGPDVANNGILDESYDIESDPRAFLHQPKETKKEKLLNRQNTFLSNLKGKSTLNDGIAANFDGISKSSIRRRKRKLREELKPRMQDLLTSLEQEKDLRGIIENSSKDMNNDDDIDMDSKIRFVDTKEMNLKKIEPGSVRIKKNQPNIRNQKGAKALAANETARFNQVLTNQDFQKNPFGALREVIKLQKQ", "experiment": "filter binding; listed as G4TP2; Filter binding: 50 mM Tris/HCl pH 8.0, 125 mM KCl, 5 mM DTT, 10% glycerol, 10 nM DNA, 0-65 uM Slx9, on ice 30 min; MST: 25 nM Cy5-DNA, NaCl (buffer partly given), 0.5% BSA, 0.05% Tween-20, 24 C", "details": "protein: recombinant; tags: 6xHis (pET28a EcoRI/NotI; about 30 kDa); label: 5' 32P; folded G4"}, "Slx9 (6xHis-Slx9) [2]": {"molecular_target": "T1, Slx9 (6xHis-Slx9)", "experiment": "filter binding; Filter binding: 50 mM Tris/HCl pH 8.0, 125 mM KCl, 5 mM DTT, 10% glycerol, 10 nM DNA, 0-65 uM Slx9, on ice 30 min; MST: 25 nM Cy5-DNA, NaCl (buffer partly given), 0.5% BSA, 0.05% Tween-20, 24 C", "details": "protein: recombinant, tags: 6xHis (pET28a EcoRI/NotI; about 30 kDa)"}},
  "note": "Substitutions are numbered along the chain they refer to.",
  "data": [
    {"binder": "AAAAAAAAAAGGGGGAGCTGGGGTAGATGGGAATGTGAGGG (structured_DNA)", "note": "[G4TP (G4TP1/G4TP2 in Fig. 1C)]", "values": [
      {"measurement": "Kd", "setting": "Slx9 (6xHis-Slx9) [1]", "value": "530 ± 100", "unit": "nM"}
    ]},
    {"binder": "AAAAAAAAAAGCGTACGGTGCGTAATAACGCAAGCTATCGCG (ssDNA)", "note": "[G4mut (mut-G4IX)]", "values": [
      {"measurement": "Kd", "setting": "Slx9 (6xHis-Slx9) [2]; 5' Cy5 (MST), cannot fold G4", "value": "15.7 ± 3.57", "unit": "µM"}
    ]},
    {"binder": "B1", "values": [
      {"measurement": "Kd", "setting": "Slx9 (6xHis-Slx9) [2]; label: 5' 32P, blunt", "value": "5.27 ± 1.18", "unit": "µM"}
    ]},
    {"binder": "B2", "values": [
      {"measurement": "Kd", "setting": "Slx9 (6xHis-Slx9) [2]; label: 5' 32P, four-way junction 1:2 2:3 3:4 4:1", "value": "3.72 ± 0.62", "unit": "µM"}
    ]},
    {"binder": "B3", "values": [
      {"measurement": "Kd", "setting": "Slx9 (6xHis-Slx9) [2]; label: 5' 32P, fork 1:2, 5' arm of strand 1 and 3' arm of strand 2 unpaired (about 19 nt)", "value": "4.21 ± 0.64", "unit": "µM"}
    ]},
    {"binder": "B4", "values": [
      {"measurement": "Kd", "setting": "Slx9 (6xHis-Slx9) [2]; label: 5' 32P, blunt, central mismatched bubble", "value": "1.73 ± 0.42", "unit": "µM"}
    ]},
    {"binder": "AAAAAAAAAAGGGTACGGTGGGTAATAAGGGAAGGTATCGGG (structured_DNA)", "note": "[G4IX]", "values": [
      {"measurement": "Kd", "setting": "Slx9 (6xHis-Slx9) [2]; 5' Cy5 (MST), folded G4", "value": "0.55 ± 0.08", "unit": "µM"}
    ]}
  ]
}
